Values of other authors, collected in publication PMC7723891.
pKd: −log10 of the molar value.

Target: Spike RBD (SARS-CoV-2) (UniProt P0DTC2)
Test: Biacore

**Q.** With CD147 (from UniProt P35613) as the substance, how does the pKd read?
**A.** 6.73
